The results in this text go back to article PMC10483697.

In the assay the target is truncated HsDNPH1 (Homo sapiens 2′-deoxynucleoside 5′-phosphate N-hydrolase 1) (human) (UniProt O43598). Briefly: crystal structure; HsDNPH1^Trunc at 8 mg/mL in 30 mM Tris-HCl pH 7.5, 150 mM NaCl, hanging drop, 20 °C, reservoir pH 4.0 with 20% PEG 1500; unliganded crystals and crystals soaked with 50 mM dUMP.

On to “truncated HsDNPH1 (Homo sapiens 2′-deoxynucleoside 5′-phosphate N-hydrolase 1) (from UniProt O43598 20-162) (enzyme)”, for which the stoichiometry N was 2.

As usually defined, the stoichiometry N is the number of molecules, sites or subunits per partner or assembly.
